Assay results as given in patent publication US20240210419A1 (UNIVERSITY OF VIRGINIA PATENT FOUNDATION, published 2024).

B1: modified H5-IgG1 antibody (antibody, V domains shown)
VH: EVQLLESGGGLVQPGGSLRLSCAASGFTFSSYAMSWVRQAPGKGLEWVSDIYDGGGTNYADSVKGRFTTSRDNSKNTLYLQMNSLRAEDTAVYYCAKTADNFDYWGQGTLVTVSS
VL: DIQMTQSPSSLSASVGDRVTITCRASQSISSYLNWYQQKPGKAPKLLIYAASTLQSGVPSRFSGSGSGTDFTLTISSLQPEDFATYYCQQANSAPTTFGQGTKVEIKR
notes: Full length IgG1 format; Made in a plug-and-(dis)play (PnP) hybridoma cell line; also called modified IgG1 format of H5
B2: unmodified H5 antibody (H5-scFv) produced in E. coli (scFv, part only; not given: scFv linker, domain order, tags, V domains shown, not shown: another chain or arm of the molecule; small tags and cut ends)
VH: B1 VH
VL: DIQMTQSPSSLSASVGDRVTITCRASQSISSYLNWYQQKPGKAPKLLIYAASTLQSGVPSRFSGSGSGTDFTLTISSLQPEDFATYYCQQANSAPTTFGQGTKVEIK

Experiments:
[1] = target: FN-9*-10 recombinant fibronectin fragment (normal form mimic) (UniProt P02751); assay: ELISA, fibronectin fragment tethered to maleimide activated plate, colorimetric detection
FN-9*-10 recombinant fibronectin fragment (normal form mimic), sequence (P02751 1448-1631): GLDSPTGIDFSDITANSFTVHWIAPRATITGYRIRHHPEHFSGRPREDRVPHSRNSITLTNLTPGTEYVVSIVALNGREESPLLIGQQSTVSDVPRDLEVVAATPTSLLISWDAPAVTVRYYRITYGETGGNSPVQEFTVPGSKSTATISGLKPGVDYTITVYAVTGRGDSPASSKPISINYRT

[2] = target: FN-9*-10 recombinant fibronectin fragment (normal form mimic) (UniProt P02751); assay: ELISA, fibronectin fragment tethered on maleimide-activated plate, colorimetric detection (absorbance)
[3] = target: T1, FN-4G-10 recombinant fibronectin fragment (diseased form mimic) (UniProt P02751 1448-1537; P02751 1538-1631, limits assumed); assay: ELISA, fibronectin fragment tethered to maleimide activated plate, colorimetric detection
T1 construct: domain: 9th type III repeat;domain: 10th type III repeat; also called FnIII9-4G-10; FnIII-4G-10
T1 sequence (P02751 other isoform, or with tags, fused parts or gaps limits assumed): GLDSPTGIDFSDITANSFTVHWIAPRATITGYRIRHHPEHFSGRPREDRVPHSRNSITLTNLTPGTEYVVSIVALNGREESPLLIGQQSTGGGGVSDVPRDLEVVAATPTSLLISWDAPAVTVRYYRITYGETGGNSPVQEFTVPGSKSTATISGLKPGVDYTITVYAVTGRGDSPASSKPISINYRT
From the text: (§1) In vitro ELISA binding assays were employed to determine the efficacy of binding of H5 antibodies and derivatives thereof to the diseased form (dise) and the healthy form (norm) of fibronectin. Maleimide activated ELISA plates were used to tether the recombinant fibronectin fragments, which were named as FN-4G-10 and FN-9*-10, and they mimicked diseased and normal form of FN, respectively. Both formats of H5 were used in different molar concentrations starting with 10^-5M and ending with 10-11M. Bound antibodies were detected by colorimetric method.
(§2) The data represents the combination of two independent experiments, one comparing E. coli (eH5) versus N. benthamiana (nicoH5) produced H5-scFv and the second comparing H5-scFv (scFv) to H5-IgG1 (H5-IgG). […] Further, it discriminated the two fragments showing higher affinity for FN-4G-10 (diseased form) compared to FN-9*-10 (Healthy form).

[4] = target: T1, FN-4G-10 recombinant fibronectin …; assay: ELISA, fibronectin fragment tethered on maleimide-activated plate, colorimetric detection (absorbance)
From the text: as §1, §2

[5] = target: FN-4G-10 recombinant fibronectin fragment (diseased form mimic) (UniProt P02751); assay: as above
FN-4G-10 recombinant fibronectin fragment (diseased form mimic) (UniProt P02751), sequence (P02751 other isoform, or with tags, fused parts or gaps limits assumed): as above

| Binder | fold higher binding than the H5-scFv format at equimolar concentration [1] [fold] | EC50 (read off the curve) [2] [nM] | fold higher binding than the H5-scFv format at equimolar concentration [3] [fold] | EC50 (read off the curve) [4] [nM] | EC50 (read off the curve) [5] [nM] |
| --- | --- | --- | --- | --- | --- |
| B1 | > 50 | 10 | ≥ 50 | ~4 | – |
| B2 | – | 100 | – | – | 100 |
